Target: the molecule itself
Experiment: SEC; Superdex 200 10/300 GL, 0.5 mg in 500 μl loaded, 5 mM MOPS pH 7.5, 100 mM ammonium sulfate, 1 mM DTT; calibrated with standard proteins

B1: IALB_1185 protein from Ignavibacterium album (IaSGT), wild type, recombinant (enzyme)
chain: MKPHNSEKYFVKNGQPHFLISGEVHYFRINPKLWRNHLQLLKQTGADTVSTYIPWDWHEIEEDDFDFEGKTHPARNLIRFIKLCKEENLDLIVKPGPYILAEYENQGLPSWLLKKLSKNAFALDENGNVISPDLVSYLSDEFLEYTFKWYDKVMPIISKHQKEHYGPITMMQLCNEIGVFQWLSGKSDYNPKVINLYKEFIIQRYKTIEKLNSVYSTNYNSFDDLKAPSGKIKLRSDYCAYFDFHLFFREYYNKYISILKNKIRSFGINIKLTHNIPGWIYGNASELPMLISTYSEIMKNHPDIIFGLDHIPEFVSFRNAHSDLACNKILEAMQPEAPVWAAEFQAGTREHHVKAYAKDLETFYIASLAHGIKGFNYYMFSQGINPEGKGFYGKTFYFQTALDAASNKLALYDSIKKVNRFIRKEQKDLLRTNVNSEICVGFYKPYFFTELISSQLLKEKKLNVEELGLYIDPRFLREEILFNGLLRGLQTLNYNYDVVDLENCDLKSLTAYKQLWITSAEFMDAETQNLLSEFVLNGGNLILYPAVPTLDNYLNRCEILKNNFGIEFITKDSSHKVSAFGIEDVFTAFSKKQIYNDTNSKPIAFTQENEICGIRKKIGKGELTILGFAFGYTSDEHLELIDKLVKLNKIKRELFVSDKDIQFVVRENNKSRYIFFLNYHNERKTFNYRKSSELKKKKSEEISIAPFSYKVIKENK
notes: IALB_1185 protein (GH35), Ignavibacterium album DSM19864, gene ialb_1185 amplified from genomic DNA and inserted into the NdeI and XhoI sites of pET30a(+); domains in the structure: TIM barrel 6-432, Rossmann fold 438-648, Ig-like 653-716; theoretical molecular mass of the recombinant protein 84,709.883; Surmise: cloning into NdeI/XhoI of pET30a(+) would give a C-terminal His6 tag; A …
- stoichiometry N: 2
